{
  "source": "patent US20220249683A1",
  "about": "(MAGENTA THERAPEUTICS, published 2022)",
  "molecules": {"B1": {"name": "anti-CD2 antibody RPA-2.10 mIgG1 (antibody, V domains shown)", "VH": "EVKLVESGGGLVKPGGSLKLSCAASGFTFSSYDMSWVRQTPEKRLEWVASISGGGFLYYLDSVKGRFTISRDNARNILYLHMTSLRSEDTAMYYCARSSYGEIMDYWGQGTSVTVSS", "VL": "DILLTQSPAILSVSPGERVSFSCRASQRIGTSIHWYQQRTTGSPRLLIKYASESISGIPSRFSGSGSGTDFTLSINSVESEDVADYYCQQSHGWPFTFGGGTKLEIER", "notes": "Murine IgG1; also called mRPA-2.10; murine anti-CD2 antibody RPA-2.10"}, "B2": {"name": "anti-CD5 antibody 5D7 hIgG1 (humanized version of murine antibody 5D7) (antibody, V domains shown)", "VH": "QVTLKESGPVLVKPTETLTLTCTFSGFSLSTSGMGVGWIRQAPGKGLEWVAHIWWDDDVYYNPSLKSRLTITKDASKDQVSLKLSSVTAADTAVYYCVRRRATGTGFDYWGQGTLVTVSS", "VL": "NIVMTQSPSSLSASVGDRVTITCQASQDVGTAVAWYQQKPDQSPKLLIYWTSTRHTGVPDRFTGSGSGTDFTLTISSLQPEDIATYFCHQYNSYNTFGSGTKLEIK", "notes": "Tested as human IgG1 (hIgG1); also called anti-CD5 5D7 antibody; humanized 5D7"}, "B3": {"name": "anti-CD2 antibody Ab1 hIgG1 (antibody, V domains shown)", "VH": "QVQLVQSGAEVKKPGASVKVSCKASGYTFTEYYMYWVRQAPGQGLELMGRIDPEDGSIDYVEKFKKKVTLTADTSSSTAYMELSSLTSDDTAVYYCARGKFNYRFAYWGQGTLVTVSS", "VL": "DVVMTQSPPSLLVTLGQPASISCRSSQSLLHSSGNTYLNWLLQRPGQSPQPLIYLVSKLESGVPDRFSGSGSGTDFTLKISGVEAEDVGVYYCMQFTHYPYTFGQGTKLEIK", "notes": "Tested as human IgG1 (hIgG1)"}},
  "key": {"human CD2 on cells [1]": {"molecular_target": "T1, human CD2 on cells (human, UniProt P06729 25-351)", "T1 construct": "Endogenous CD2 on MOLT-4 human T lymphoblast cells, primary human T cells or primary human NK cells; The cell type is named under assay; also called CD2 on MOLT-4 cells; CD2 on primary human T-cells", "T1 sequence": "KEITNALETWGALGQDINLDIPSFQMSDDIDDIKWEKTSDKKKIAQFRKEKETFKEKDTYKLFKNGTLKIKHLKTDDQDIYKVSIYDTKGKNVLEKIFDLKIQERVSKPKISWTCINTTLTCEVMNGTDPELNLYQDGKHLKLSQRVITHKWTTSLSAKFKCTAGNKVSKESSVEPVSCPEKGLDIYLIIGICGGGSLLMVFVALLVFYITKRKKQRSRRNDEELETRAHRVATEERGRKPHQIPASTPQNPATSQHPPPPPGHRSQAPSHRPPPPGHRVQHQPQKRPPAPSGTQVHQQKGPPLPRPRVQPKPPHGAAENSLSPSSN", "experiment": "flow cytometry on MOLT-4 cells, antibody titration, anti-mouse AF488 secondary, 4 C"}, "human CD5 on cells [2]": {"molecular_target": "T2, human CD5 on cells (human, UniProt P06127 25-495)", "T2 construct": "Endogenous CD5 on MOLT-4 human T lymphoblast cells or primary human T cells; The cell type is named under assay; also called CD5 on MOLT-4 cells; CD5 on primary human T-cells", "T2 sequence (looked up)": "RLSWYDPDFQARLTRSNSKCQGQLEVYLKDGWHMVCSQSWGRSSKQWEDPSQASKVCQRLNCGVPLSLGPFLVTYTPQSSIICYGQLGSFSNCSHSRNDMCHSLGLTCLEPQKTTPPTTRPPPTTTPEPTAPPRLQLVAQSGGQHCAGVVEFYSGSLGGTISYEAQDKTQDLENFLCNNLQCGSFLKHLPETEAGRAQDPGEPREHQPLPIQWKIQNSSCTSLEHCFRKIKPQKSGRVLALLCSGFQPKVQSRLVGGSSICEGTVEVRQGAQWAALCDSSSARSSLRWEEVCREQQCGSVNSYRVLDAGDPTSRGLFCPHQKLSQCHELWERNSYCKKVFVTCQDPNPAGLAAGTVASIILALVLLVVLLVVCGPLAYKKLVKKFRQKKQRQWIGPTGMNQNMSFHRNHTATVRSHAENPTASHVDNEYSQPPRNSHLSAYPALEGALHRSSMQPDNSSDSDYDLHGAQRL", "experiment": "flow cytometry on MOLT-4 cells, antibody titration, anti-mouse AF488 secondary, 4 C"}, "human CD5 on cells [3]": {"molecular_target": "T2, human CD5 on cells", "experiment": "flow cytometry on MOLT-4 cells, antibody titration 2 h at 4 C, anti-mouse AF488 secondary, geometric MFI"}, "[4]": {"molecular_target": "T3, purified human CD2 ectodomain (human, UniProt P06729 25-209)", "T3 construct": "Bought reagent; also called Sigma Aldrich Catalog #5086", "T3 sequence": "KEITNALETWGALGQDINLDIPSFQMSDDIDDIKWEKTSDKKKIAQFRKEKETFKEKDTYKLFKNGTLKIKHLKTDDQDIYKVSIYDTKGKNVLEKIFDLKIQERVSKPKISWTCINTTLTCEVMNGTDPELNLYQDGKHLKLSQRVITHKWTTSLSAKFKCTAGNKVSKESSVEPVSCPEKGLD", "experiment": "BLI (Octet Red96), IgG on anti-murine Fc biosensor, 50 nM human CD2 ectodomain, 1:1 model"}, "human CD2 on cells [5]": {"molecular_target": "T1, human CD2 on cells", "experiment": "flow cytometry on primary human T-cells, antibody titration 2 h at 37 C, AF488 secondary"}, "[6]": {"molecular_target": "T3, purified human CD2 ectodomain", "experiment": "BLI (Octet Red96), IgG on anti-murine Fc biosensor, 50 nM human CD2 ectodomain, 1:1 model, apparent monovalent affinity"}, "human CD2 on cells [7]": {"molecular_target": "T1, human CD2 on cells", "experiment": "flow cytometry on primary human T-cells, antibody titration 2 h at 37 C, AF488 secondary, MFI", "protocol": "Primary human T-cells were plated at 8×10⁴ cells/well and stained with a titration of the murine anti-CD23 antibody RPA-2.10 for 2 hours at 37° C. Secondary anti-mouse or anti-human AF488 stain, relative to primary antibody, at a constant amount, was added for 30 minutes at 4° C. After washing, plates were run on a flow cytometer and binding of the indicated antibody (and the negative control, i.e., mIgG1 or hIgG1) was determined based on geometric mean fluorescence intensity in the AF488 channel."}, "human CD5 on cells [8]": {"molecular_target": "T2, human CD5 on cells", "experiment": "flow cytometry on primary human T-cells, antibody titration 2 h at 37 C, AF488 secondary, MFI", "protocol": "Secondary anti-mouse AF488 stain, at a constant amount, was added for 30 minutes at 4° C."}, "human CD5 on cells [9]": {"molecular_target": "T2, human CD5 on cells", "experiment": "flow cytometry on primary human T-cells, antibody titration 2 h at 37 C, AF488 secondary"}, "[10]": {"molecular_target": "T4, purified human CD5 ectodomain (human, UniProt P06127 25-372)", "T4 sequence (looked up)": "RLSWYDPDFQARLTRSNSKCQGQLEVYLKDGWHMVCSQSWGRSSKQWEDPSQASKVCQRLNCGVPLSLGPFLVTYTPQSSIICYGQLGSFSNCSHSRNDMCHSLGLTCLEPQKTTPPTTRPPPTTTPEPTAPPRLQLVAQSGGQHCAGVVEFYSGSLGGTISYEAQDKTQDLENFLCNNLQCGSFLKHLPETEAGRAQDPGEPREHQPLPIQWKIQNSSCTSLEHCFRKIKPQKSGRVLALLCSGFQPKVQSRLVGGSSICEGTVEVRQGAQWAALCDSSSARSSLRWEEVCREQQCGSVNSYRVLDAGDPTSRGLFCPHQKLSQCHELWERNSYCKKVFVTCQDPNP", "experiment": "BLI (Octet Red96), IgG on anti-human Fc biosensor, 50 nM human CD5 ectodomain", "protocol": "To determine the binding characteristics of anti-CD5 antibody 5D7 hIgG1, antibody binding studies were performed at 25 degrees celsius in 1×PBS supplemented with 0.1% w/v bovine serum albumin with a Pall ForteBio Octet Red96 using biolayer interferometry (BLI)."}, "[11]": {"molecular_target": "T3, purified human CD2 ectodomain", "experiment": "BLI (Octet Red96), IgG on anti-human Fc biosensor, 50 nM human CD2 ectodomain, 1:1 model, apparent monovalent affinity"}, "[12]": {"molecular_target": "T3, purified human CD2 ectodomain", "experiment": "BLI (Octet Red96), IgG on anti-human Fc biosensor, 50 nM human CD2 ectodomain, 1:1 model"}},
  "data": [
    {"molecule": "murine anti-CD2 antibody TS1/8", "values": [
      {"measurement": "EC50", "setting": "human CD2 on cells [1]", "result": 0.125, "unit": "nM"}
    ]},
    {"molecule": "murine anti-CD5 antibody CRIS-1 (Novus Biologicals)", "values": [
      {"measurement": "EC50", "setting": "human CD5 on cells [2]", "result": 0.043, "unit": "nM"},
      {"measurement": "EC50 (read off the curve)", "setting": "human CD5 on cells [3]", "result": 0.04, "unit": "nM"}
    ]},
    {"molecule": "murine anti-CD5 antibody UCHT2 (BioLegend)", "values": [
      {"measurement": "EC50", "setting": "human CD5 on cells [2]", "result": 0.354, "unit": "nM"},
      {"measurement": "EC50 (read off the curve)", "setting": "human CD5 on cells [3]", "result": 0.3, "unit": "nM"}
    ]},
    {"molecule": "B1", "values": [
      {"measurement": "koff", "setting": "[4]", "result": 0.000172, "unit": "s⁻¹"},
      {"measurement": "kon", "setting": "[4]", "result": 86000, "unit": "M⁻¹ s⁻¹"},
      {"measurement": "EC50", "setting": "human CD2 on cells [1]", "result": 0.16, "unit": "nM"},
      {"measurement": "EC50", "setting": "human CD2 on cells [5]", "result": 0.00184, "unit": "nM"},
      {"measurement": "Kd", "setting": "[6]", "result": 2, "unit": "nM"},
      {"measurement": "EC50 (read off the curve)", "setting": "human CD2 on cells [7]", "result": "~0.03", "unit": "nM"}
    ]},
    {"molecule": "B2", "values": [
      {"measurement": "EC50 (read off the curve)", "setting": "human CD5 on cells [8]", "result": "~0.03", "unit": "nM"},
      {"measurement": "EC50", "setting": "human CD5 on cells [9]", "result": 0.003, "unit": "nM"},
      {"measurement": "Kd", "setting": "[10]", "result": 0.141, "unit": "nM"},
      {"measurement": "koff", "setting": "[10]", "result": "3.36e-05", "unit": "s⁻¹"},
      {"measurement": "kon", "setting": "[10]", "result": 239000, "unit": "M⁻¹ s⁻¹"}
    ]},
    {"molecule": "B3", "values": [
      {"measurement": "Kd", "setting": "[11]", "result": 2.12, "unit": "nM"},
      {"measurement": "koff", "setting": "[12]", "result": 0.000289, "unit": "s⁻¹"},
      {"measurement": "kon", "setting": "[12]", "result": 136000, "unit": "M⁻¹ s⁻¹"}
    ]}
  ]
}
